The target in assay [1] is T1, mouse TIGIT (R & D Systems), ELISA antigen (mouse, UniProt P86176 29-148, limits assumed).
T1 sequence (looked up): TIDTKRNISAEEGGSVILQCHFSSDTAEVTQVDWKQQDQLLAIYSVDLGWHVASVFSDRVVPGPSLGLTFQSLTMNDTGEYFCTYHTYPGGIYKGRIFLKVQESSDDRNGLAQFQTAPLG
The experiment in a line: ELISA, antigen coated on the plate, 30 ng antibody per well (one amount), absorbance 450 nm. The source says:
In order to determine the species cross-reactivity of the anti-TIGIT antibodies screened by phage display screening, whether or not the anti-TIGIT antibodies bound to human TIGIT (R&D Systems), mouse TIGIT (R & D Systems) and rhesus TIGIT antigens was identified by ELISA. The rhesus TIGIT antigens used herein were expressed and purified in the form of Fc-fusion by gene synthesis with reference to the Rhesus TIGIT gene sequence (NCBI accession No. XP_014985303.1). Each of three types of the TIGIT antigens diluted at a concentration of […] in PBS was added at 30 μl/well to a 96-well plate and incubated overnight at 4° C. to induce coating. Then, 30 ng of the screened antibody was bound to the TIGIT antigen, and 30 μL of a TBST (5% BSA) solution diluted at 1:3,000 was added to each well and incubated at room temperature for 1 hour. After washing three times with TBST, 30 μL of the TMB solution was added to each well to induce color development. After ceasing the reaction with 1N H₂SO₄, color development was determined at an absorbance of 450 nm. The species cross-reactivity of the screened antibodies bound to […] of antigens was identified (FIG. 1).

Another assay concerns the target T2, CD96 (Sinobiological) (UniProt P40200-2 22-503, limits assumed).
T2 sequence (looked up): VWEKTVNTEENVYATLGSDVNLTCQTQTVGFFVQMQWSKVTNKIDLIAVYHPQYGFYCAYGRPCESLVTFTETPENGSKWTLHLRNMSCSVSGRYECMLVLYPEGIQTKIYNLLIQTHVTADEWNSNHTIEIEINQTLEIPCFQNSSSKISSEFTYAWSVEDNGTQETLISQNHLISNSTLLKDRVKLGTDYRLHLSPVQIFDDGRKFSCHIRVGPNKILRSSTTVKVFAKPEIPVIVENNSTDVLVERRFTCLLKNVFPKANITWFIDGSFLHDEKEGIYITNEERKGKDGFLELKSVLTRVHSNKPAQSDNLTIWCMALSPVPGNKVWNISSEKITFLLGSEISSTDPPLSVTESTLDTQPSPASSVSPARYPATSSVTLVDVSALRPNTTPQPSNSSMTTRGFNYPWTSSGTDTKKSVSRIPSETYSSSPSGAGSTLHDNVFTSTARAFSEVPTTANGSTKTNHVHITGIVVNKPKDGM
The experiment in a line: ELISA, antigen coated at 100 ng/well, 30 ng antibody per well (one amount), absorbance 450 nm. As to the method:
(§1) The binding of the anti-TIGIT antibodies to TIGIT superfamilies such as CD96 (Sinobiological), CD155 (Sinobiological), CD112 (R&D Systems), CD113 (R&D Systems) and CD226 (R&D Systems) antigens was identified by ELISA in order to determine the TIGIT specificity of the anti-TIGIT antibodies screened by phage display screening. Six types of antigens including TIGIT were coated at 100 ng/well on a 96-well plate, treated with 30 ng of each screened antibody and incubated at room temperature for 1 hour. After washing three times with TBST, 30 μL of TBST (5% BSA) diluted at 1:3,000 with an anti-human Fab-HRP secondary antibody (Jackson) was added to each well and incubated at room temperature for 1 hour. After washing three times with TBST, 30 μL of the resulting TMB solution was added to each well. After ceasing the reaction with 1N H₂SO₄, color development was determined at an absorbance of 450 nm. The binding of the selected antibodies to the six antigens was identified. As a result, it can be seen that all the antibodies specifically bound only to the TIGIT antigen (FIG. 2).

The target of assay [2] is T3, CD155 (Sinobiological), ELISA antigen (UniProt P15151 21-343).
T3 sequence (looked up): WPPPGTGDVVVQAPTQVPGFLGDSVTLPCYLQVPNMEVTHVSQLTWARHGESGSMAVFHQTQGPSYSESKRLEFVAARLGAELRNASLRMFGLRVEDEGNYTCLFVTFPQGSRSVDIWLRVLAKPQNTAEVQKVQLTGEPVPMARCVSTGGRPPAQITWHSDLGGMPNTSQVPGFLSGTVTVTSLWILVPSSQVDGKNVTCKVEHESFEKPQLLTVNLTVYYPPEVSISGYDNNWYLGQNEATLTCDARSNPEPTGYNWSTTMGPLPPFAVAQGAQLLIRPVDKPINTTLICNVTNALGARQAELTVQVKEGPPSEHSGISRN
The description is as above. As to the method:
as §1

Another assay addresses T4, CD112 (R&D Systems) (UniProt Q92692 32-360, limits assumed).
T4 sequence (looked up): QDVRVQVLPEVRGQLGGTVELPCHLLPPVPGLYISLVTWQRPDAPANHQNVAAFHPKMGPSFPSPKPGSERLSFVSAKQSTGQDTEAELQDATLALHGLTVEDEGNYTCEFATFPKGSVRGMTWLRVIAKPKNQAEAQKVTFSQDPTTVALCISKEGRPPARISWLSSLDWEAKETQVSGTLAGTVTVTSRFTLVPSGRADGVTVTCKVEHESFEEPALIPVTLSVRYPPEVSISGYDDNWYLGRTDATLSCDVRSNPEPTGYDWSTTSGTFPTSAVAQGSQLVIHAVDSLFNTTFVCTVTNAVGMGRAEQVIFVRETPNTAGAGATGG
The assay is described as above. The method, then: as §1

The target of another assay is CD113 (R&D Systems) (UniProt Q9NQS3 58-404, limits assumed). Described as above. The method, then:
as §1

The next assay addresses T5, CD226 (R&D Systems) (UniProt Q15762 19-247, limits assumed).
T5 sequence (looked up): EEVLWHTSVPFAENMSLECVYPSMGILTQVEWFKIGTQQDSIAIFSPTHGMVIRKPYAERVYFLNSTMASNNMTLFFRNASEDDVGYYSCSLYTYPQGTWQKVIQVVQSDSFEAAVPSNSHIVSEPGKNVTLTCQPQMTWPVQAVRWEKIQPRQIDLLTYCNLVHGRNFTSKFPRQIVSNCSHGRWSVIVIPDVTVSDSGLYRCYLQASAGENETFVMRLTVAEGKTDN
The description is as above. As to the method: as §1

CD113 (R&D Systems), sequence (Q9NQS3 58-404 limits assumed): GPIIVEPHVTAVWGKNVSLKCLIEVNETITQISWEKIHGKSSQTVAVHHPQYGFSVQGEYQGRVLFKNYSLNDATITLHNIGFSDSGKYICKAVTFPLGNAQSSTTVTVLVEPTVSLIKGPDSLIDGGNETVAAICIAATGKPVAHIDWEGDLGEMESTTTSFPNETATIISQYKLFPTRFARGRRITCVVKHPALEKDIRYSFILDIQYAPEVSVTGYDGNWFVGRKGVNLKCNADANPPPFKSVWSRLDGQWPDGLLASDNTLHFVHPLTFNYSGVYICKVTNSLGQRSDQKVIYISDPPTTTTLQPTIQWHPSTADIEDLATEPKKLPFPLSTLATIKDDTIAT

B1: F04 (IgG1 form) (antibody, V domains shown)
VH: EVQLLESGGGLVQPGGSLRLSCAASGFTFSSYYMSWVRQAPGKGLEWVSSIGSYYTYYADSVKGRFTISRDNSKNTLYLQMNSLRAEDTAVYYCARSSYSGGNGYYYYAYAFDYWGQGTLVTVSS
VL: EIVLTQSPGTLSLSPGERATLSCRASQSVSSSYLAWYQQKPGQAPRLLIYGASSRATGIPDRFSGSGSGTDFTLTISRLEPEDFAVYYCQQGYHRYATFGQGTKVEIK
Turning to B1, the binding result in assay [1] was “binds”; in the assay with CD96 (Sinobiological) it was “no binding (tested: 30 ng per well)”; in assay [2] it was “no binding (tested: 30 ng per well)”; in the assay with CD112 (R&D Systems), “no binding (tested: 30 ng per well)”; in the assay with CD113 (R&D Systems), “no binding (tested: 30 ng per well)”; with CD226 (R&D Systems), “no binding (tested: 30 ng per well)”.

B2: S64 (IgG1 form) (antibody, V domains shown)
VH: EVQLLESGGGLVQPGGSLRLSCAASGFTFSNYAMSWVRQAPGKGLEWVSAIYPGGGSIYYADSVKGRFTISRDNSKNTLYLQMNSLRAEDTAVYYCAKAIRTCSLSHCYYYYGMDVWGQGTLVTVSS
VL: QSVLTQPPSASGTPGQRVTISCSCSSSNIGNNAVSWYQQLPGTAPKLLIYYDSNRPSGVPDRFSGSKSGTSASLAISGLRSEDEADYYCGSWDYSLSAYVFGGGTKLTVLG
With B2, the binding result in assay [1] is on record as “binds”; with CD96 (Sinobiological) it was “no binding (tested: 30 ng per well)”; in assay [2] it was “no binding (tested: 30 ng per well)”; with CD112 (R&D Systems), “no binding (tested: 30 ng per well)”; in the assay with CD113 (R&D Systems) it was “no binding (tested: 30 ng per well)”; with CD226 (R&D Systems), “no binding (tested: 30 ng per well)”.
